According to article PMC9860152:

What was measured:
REST-FL = biological target: T1, REST-FL (human, UniProt Q13127 1-1097); assay: fluorescence anisotropy
T1 sequence: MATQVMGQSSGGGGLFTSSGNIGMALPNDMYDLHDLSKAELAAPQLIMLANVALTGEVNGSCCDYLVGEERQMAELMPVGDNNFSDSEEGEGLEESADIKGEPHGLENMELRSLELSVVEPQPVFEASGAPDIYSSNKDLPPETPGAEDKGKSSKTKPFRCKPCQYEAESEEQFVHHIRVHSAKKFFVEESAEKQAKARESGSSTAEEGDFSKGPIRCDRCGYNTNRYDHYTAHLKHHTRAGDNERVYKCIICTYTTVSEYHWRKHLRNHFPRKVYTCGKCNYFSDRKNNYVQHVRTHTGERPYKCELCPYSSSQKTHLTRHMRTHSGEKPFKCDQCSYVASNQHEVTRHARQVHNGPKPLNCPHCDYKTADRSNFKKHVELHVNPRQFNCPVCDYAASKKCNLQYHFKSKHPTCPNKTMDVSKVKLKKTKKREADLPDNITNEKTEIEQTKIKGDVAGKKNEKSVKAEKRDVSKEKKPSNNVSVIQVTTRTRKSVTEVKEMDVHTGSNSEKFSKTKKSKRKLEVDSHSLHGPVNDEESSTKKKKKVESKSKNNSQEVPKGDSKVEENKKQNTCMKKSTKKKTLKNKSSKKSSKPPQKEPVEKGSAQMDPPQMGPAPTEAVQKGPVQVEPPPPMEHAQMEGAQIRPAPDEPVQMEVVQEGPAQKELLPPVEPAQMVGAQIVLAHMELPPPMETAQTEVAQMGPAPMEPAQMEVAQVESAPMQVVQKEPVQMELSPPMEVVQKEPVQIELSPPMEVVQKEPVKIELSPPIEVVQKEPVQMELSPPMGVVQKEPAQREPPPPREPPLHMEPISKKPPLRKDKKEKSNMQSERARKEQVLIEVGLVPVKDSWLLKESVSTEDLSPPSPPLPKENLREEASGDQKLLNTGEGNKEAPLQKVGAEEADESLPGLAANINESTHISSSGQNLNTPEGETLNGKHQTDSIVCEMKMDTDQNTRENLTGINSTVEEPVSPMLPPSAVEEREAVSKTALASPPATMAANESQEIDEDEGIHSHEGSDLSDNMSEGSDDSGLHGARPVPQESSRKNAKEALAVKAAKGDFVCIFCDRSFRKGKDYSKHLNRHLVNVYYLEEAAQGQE

REST-N62 (REST4-S3) = biological target: T2, REST-N62 (REST4-S3) (human, UniProt A0A087X1C2 1-340); assay: fluorescence anisotropy
T2 sequence: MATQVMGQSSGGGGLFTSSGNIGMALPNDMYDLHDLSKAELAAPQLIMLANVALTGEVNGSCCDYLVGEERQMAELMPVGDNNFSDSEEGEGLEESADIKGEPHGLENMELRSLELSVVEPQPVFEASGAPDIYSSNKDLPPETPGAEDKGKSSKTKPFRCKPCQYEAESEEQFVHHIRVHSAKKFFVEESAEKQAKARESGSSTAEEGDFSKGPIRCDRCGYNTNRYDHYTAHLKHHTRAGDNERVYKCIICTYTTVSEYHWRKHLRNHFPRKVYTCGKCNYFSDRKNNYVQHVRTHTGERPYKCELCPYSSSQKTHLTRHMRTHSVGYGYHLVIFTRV

B1: NRSE (RE1) 21 bp duplex (dsDNA)
DNA 1: TTCAGCACCATGGACAGCGCC
DNA 2: GGCGCTGTCCATGGTGCTGAA
- Kd (REST-FL): 5.7 ± 0.6 nM
- binding result (REST-N62 (REST4-S3)): no binding
